*1 amine or outer side, *2 acyl side, *3 side chain or, on linkers, in order; H or OH if unused. Where no end group is shown, it is not given here. Side-chain parts run from the residue outwards. [ ]: non-standard residue; d: D form. The star is where a group is joined. C18 diacid = O=C(O)CCCCCCCCCCCCCCCCC(=O)*; γGlu = O=C(O)[C@H](CCC(=O)[*:2])N[*:1]; AEEA = NCCOCCOCC(=O)O; Aib = CC(C)(N)C(=O)O
T1: human GIPR (glucose-dependent insulinotropic polypeptide receptor) (human, UniProt P48546 22-466)
T1 sequence (looked up): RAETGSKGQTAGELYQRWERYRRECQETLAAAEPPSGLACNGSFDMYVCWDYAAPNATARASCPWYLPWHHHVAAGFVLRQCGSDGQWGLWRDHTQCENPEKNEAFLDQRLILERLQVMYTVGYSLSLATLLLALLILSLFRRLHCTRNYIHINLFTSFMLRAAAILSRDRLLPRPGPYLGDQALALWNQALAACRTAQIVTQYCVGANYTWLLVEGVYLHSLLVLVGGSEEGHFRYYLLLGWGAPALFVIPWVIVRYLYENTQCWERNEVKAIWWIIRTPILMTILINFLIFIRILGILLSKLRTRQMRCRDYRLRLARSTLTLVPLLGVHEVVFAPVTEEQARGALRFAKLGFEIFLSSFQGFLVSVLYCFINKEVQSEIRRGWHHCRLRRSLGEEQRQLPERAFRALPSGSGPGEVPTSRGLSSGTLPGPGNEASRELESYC

T2: human GLP-2R (glucagon-like peptide-2 receptor) (human, UniProt O95838 1-553)
T2 sequence (looked up): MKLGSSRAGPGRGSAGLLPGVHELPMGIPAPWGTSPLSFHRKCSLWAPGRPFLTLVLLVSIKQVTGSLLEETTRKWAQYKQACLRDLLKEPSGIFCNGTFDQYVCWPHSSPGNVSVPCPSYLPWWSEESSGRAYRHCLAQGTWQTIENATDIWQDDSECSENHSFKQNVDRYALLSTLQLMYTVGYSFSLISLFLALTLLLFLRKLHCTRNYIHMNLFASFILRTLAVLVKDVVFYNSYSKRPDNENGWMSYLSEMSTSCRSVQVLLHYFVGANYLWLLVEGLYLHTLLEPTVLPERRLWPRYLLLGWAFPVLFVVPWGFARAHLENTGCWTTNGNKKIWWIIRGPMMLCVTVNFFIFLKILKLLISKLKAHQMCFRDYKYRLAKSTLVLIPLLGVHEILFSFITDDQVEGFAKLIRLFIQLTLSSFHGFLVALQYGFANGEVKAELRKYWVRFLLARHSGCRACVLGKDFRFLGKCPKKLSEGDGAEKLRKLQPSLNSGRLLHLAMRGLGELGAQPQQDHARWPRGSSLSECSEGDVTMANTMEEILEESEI

T3: Human N-terminally SNAP-tagged GIPR (human, UniProt P48546 22-466, SNAP tag labeled with Tag-Lite SNAP-Lumi4-Tb)
T3 sequence (looked up): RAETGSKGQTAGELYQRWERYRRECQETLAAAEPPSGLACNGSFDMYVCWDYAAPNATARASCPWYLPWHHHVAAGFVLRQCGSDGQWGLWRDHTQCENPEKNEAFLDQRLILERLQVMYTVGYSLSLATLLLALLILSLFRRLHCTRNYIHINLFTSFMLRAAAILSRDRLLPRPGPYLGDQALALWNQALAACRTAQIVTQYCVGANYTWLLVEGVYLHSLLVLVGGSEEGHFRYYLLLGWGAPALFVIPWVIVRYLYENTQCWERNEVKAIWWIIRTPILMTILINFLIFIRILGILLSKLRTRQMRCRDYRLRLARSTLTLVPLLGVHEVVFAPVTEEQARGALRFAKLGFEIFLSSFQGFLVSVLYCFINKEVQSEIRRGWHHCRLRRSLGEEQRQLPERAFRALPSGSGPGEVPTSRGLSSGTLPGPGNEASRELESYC

T4: human SNAP-tagged GLP-2R (human, UniProt O95838 1-553, SNAP tag labeled with Tag-Lite SNAP-Lumi4-Tb)
T4 sequence (looked up): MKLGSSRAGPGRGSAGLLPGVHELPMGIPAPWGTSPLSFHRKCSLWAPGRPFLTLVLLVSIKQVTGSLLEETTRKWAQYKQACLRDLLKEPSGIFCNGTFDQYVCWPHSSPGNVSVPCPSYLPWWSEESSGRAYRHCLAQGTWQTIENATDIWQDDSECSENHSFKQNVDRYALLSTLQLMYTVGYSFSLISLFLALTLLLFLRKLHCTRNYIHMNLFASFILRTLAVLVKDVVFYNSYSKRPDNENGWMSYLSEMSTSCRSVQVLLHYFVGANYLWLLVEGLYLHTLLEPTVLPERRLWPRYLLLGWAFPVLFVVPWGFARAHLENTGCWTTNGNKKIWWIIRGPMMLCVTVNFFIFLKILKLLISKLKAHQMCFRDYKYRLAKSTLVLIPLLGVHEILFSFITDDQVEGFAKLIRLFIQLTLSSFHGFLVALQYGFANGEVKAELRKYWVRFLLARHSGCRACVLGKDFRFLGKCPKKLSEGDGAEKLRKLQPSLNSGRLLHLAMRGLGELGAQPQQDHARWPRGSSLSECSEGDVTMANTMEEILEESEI


How the values were obtained:
Experiment in all cases: cell-based or functional assay
[1] = target: human glucagon receptor (GCGR) (human, UniProt P47871 26-477, limits assumed)
Chain of human glucagon receptor (GCGR) (P47871 26-477 limits assumed): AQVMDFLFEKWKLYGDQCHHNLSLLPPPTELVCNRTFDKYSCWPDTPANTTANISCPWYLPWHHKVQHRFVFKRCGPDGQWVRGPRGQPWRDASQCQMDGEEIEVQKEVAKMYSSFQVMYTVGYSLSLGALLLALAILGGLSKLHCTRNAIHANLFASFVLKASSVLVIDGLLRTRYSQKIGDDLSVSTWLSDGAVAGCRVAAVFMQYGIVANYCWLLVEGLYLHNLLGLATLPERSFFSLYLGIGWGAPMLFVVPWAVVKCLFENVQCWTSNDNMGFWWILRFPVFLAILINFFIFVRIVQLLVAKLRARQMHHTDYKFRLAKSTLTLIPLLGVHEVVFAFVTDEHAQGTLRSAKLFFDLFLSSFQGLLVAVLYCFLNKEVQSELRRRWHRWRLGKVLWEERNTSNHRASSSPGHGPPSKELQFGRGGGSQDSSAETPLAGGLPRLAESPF

[2] = target: T1, human GIPR (glucose-dependent …)
[3] = target: T2, human GLP-2R (glucagon-like peptide-2 …)
[4] = target: human GLP-1R (glucagon-like peptide-1 receptor) (human, UniProt P43220 24-463)
[5] = target: T3, Human N-terminally SNAP-tagged GIPR
human SNAP-tagged GLP-1R = human SNAP-tagged GLP-1R (human, UniProt P43220 24-463, SNAP tag labeled with Tag-Lite SNAP-Lumi4-Tb)
human SNAP-tagged GLP-2R = target: T4, human SNAP-tagged GLP-2R

| potency in Gs activation, measured as cAMP accumulation (-p Log EC50) [1] | EC50 (nM) GIPR [2] [nM] | Efficacy GIPR [2] | pEC50 GIPR [2] | Efficacy GLP-2R [3] | logEC50 GLP-2R [3] | EC50 (nM) GLP-1R [4] [nM] | Efficacy GLP-1R [4] | logEC50 GLP-1R [4] | Absolute hGIPR internalization (AUC) [5] [AUC] | Relative hGIPR internalization (%) [5] [%] | Absolute hGLP-1R internalization (AUC) (human SNAP-tagged GLP-1R) | Relative hGLP-1R internalization (%) (human SNAP-tagged GLP-1R) | Absolute hGLP-2R internalization (AUC) (human SNAP-tagged GLP-2R) | Relative hGLP-2R internalization (%) (human SNAP-tagged GLP-2R) | EC50 (nM) GLP-2R [3] [nM] | Binder |
| --- | --- | --- | --- | --- | --- | --- | --- | --- | --- | --- | --- | --- | --- | --- | --- | --- |
| < 7 -p Log EC50 | 0.071 | 119 | 10.2 | 89 | 8.7 | 3.98 | 102 | 8.4 | 21.7 | 59 | 0.96 | 1.14 | 12 | 24.8 |  | H[Aib]DGTFISDYSTILDALAARDFINWLIQTKITK([AEEA-AEEA-γGlu-C18 diacid])-OH [Compound 28] |
| < 7 -p Log EC50 | 1.12 | 93 | 9 | 93 | 9.3 | 0.04 | 116 | 10.5 | 7 | 19 | 78.8 | 93.7 | 38 | 78.2 | 0.6 | HADGTFTSDYST[Aib]LDK([AEEA-AEEA-γGlu-C18 diacid])LAARDFINWLIQTKGKKNDWKHNITQ-OH [Compound 22] |
| < 7 -p Log EC50 | 0.398 | 104 | 9.4 | 104 | 9.2 | 0.05 | 122 | 10.3 | 10.2 | 28 | 94.7 | 113 | 36.3 | 74.6 | 0.6 | HADGTFTSDYSTILDK([AEEA-AEEA-γGlu-C18 diacid])LAARDFINWLIQTKGKKNDWKHNITQ-OH [Compound 21] |
| < 7 -p Log EC50 |  |  |  | 100 | 9.5 | 0.04 | 112 | 10.4 | 14.2 | 38 | 91.8 | 109 | 39.4 | 81 | 0.3 | HADGTFTSDYSIILDK([AEEA-AEEA-γGlu-C18 diacid])LAARDFINWLIQTKGKKNDWKHNITQ-OH [Compound 20] |
